Among the data in patent US20260209348A1 (University of California, published 2026) are Kd values, retold here.

The chains are these.
B1: h6E6-002 (antibody, V domains shown)
VH: EVQLVESGGGLVKPGGSLRLSCAASGFTFSSYGISWVRQAPGKGLEWVSTISSGGGYTHYAESVKGRFTISRDNAKNSLYLQMNSLRAEDTAVYYCARHPRDFSYAMDYWGQGTTVTVSS
VL: EIVMTQSPATLSVSPGERATLSCRASQDVGHYLAWYQQKPGQAPRLLIYWASTRHTGIPARFSGSGSGTEFTLTISSLQSEDFAVYYCQQYNIYPWTFGQGTKVEIK
notes: also called clone 2
B2: h6E6-078 (antibody, V domains shown)
VH: B1 VH with S31A, I34S, E62P
VL: B1 VL with R24K, L33V, H55A
notes: also called clone 78
B3: h6E6-081 (antibody, V domains shown)
VH: B1 VH with I34M, S35N, E62D, M107Q
VL: B1 VL with L33V
notes: also called clone 81
B4: h6E6-026 (antibody, V domains shown)
VH: B1 VH with S31R, I34M, E62A
VL: B1 VL with R24K, L33V
notes: also called clone 26
B5: h6E6-069 (antibody, V domains shown)
VH: B1 VH with S31K, I34V, A61V
VL: B1 VL with R24K, H55A
notes: also called clone 69
B6: h6E6-099 (antibody, V domains shown)
VH: B1 VH with S31N, I34M, S35N, E62P
VL: B1 VL with R24K, L33V, H55A
notes: also called clone 99
B7: h6E6-022 (antibody, V domains shown)
VH: B1 VH with S31K, I34T, E62P
VL: B1 VL with R24K, L33V, H55A
notes: also called clone 22
B8: h6E6-076 (antibody, V domains shown)
VH: B1 VH with S31G, I34M, A61V, M107L
VL: B1 VL with R24K, H55A
notes: also called clone 76
B9: h6E6-012 (antibody, V domains shown)
VH: B1 VH with S31A, I34A, T50S, A61V, M107Q
VL: B1 VL with H55A
notes: also called clone 12
B10: h6E6-109 (antibody, V domains shown)
VH: B1 VH with S31N, I34T, A61V, E62T
VL: B1 VL with R24K, L33V, H55A
notes: also called clone 109
B11: h6E6-025 (antibody, V domains shown)
VH: B1 VH with S31H, I34H, A61V
VL: B1 VL with L33V, H55A
notes: also called clone 25
B12: h6E6-049 (antibody, V domains shown)
VH: B1 VH with S31N, I34M, T50S
VL: B1 VL with R24K, L33V, H55A
notes: also called clone 49
B13: h6E6-009 (antibody, V domains shown)
VH: B1 VH with S31G, I34M, S35N, M107A
VL: B1 VL with R24K, H55A
notes: also called clone 9
B14: h6E6-033 (antibody, V domains shown)
VH: B1 VH with S31T, I34M, A61V, E62T
VL: B1 VL with R24K, L33V
notes: also called clone 33
B15: h6E6-064 (antibody, V domains shown)
VH: B1 VH with S31H, T50S
VL: B1 VL with L33V, H55A
notes: also called clone 64
B16: h6E6-089 (antibody, V domains shown)
VH: B1 VH with S31D, A61V, E62Q
VL: B1 VL with R24K, H55A
notes: also called clone 89
B17: h6E6-106 (antibody, V domains shown)
VH: B1 VH with H59Y, A61V, E62D, M107L
VL: B1 VL with R24K, L33V, H55A
notes: also called clone 106
B18: h6E6-082 (antibody, V domains shown)
VH: B1 VH with S31K, I34M, E62D
VL: B1 VL with R24K
notes: also called clone 82
B19: h6E6-084 (antibody, V domains shown)
VH: B1 VH with S31Q, I34M, A61V, E62Q, M107Q
VL: B1 VL with R24K, H55A
notes: also called clone 84
B20: h6E6-005 (antibody, V domains shown)
VH: B1 VH with S31G, I34L, E62A
VL: B1 VL with R24K, L33V, H55A
notes: also called clone 5
B21: h6E6-052 (antibody, V domains shown)
VH: B1 VH with S31H, I34T, M107I
VL: B1 VL with R24K, H55A
notes: also called clone 52
B22: h6E6-038 (antibody, V domains shown)
VH: B1 VH with S31R, I34M, E62P, L86P, M107Q
VL: B1 VL with R24K
notes: also called clone 38
B23: h6E6-014 (antibody, V domains shown)
VH: B1 VH with I34M, S35N, A61V, E62D, M107T
VL: B1 VL with L33V
notes: also called clone 14
B24: h6E6-062 (antibody, V domains shown)
VH: B1 VH with I34H, H59Y, M107H
VL: B1 VL with R24K, H55A
notes: also called clone 62
B25: h6E6-003 (antibody, V domains shown)
VH: B1 VH with S31Q, I34T, M107H
VL: B1 VL
notes: also called clone 3
B26: h6E6-051 (antibody, V domains shown)
VH: B1 VH with S31N, I34M, A61V, E62D, M107L
VL: B1 VL with R24K, L33V, H55A
notes: also called clone 51
B27: h6E6-023 (antibody, V domains shown)
VH: B1 VH with I34M, E62P, M107L
VL: B1 VL with R24K, H55A
notes: also called clone 23
B28: h6E6-050 (antibody, V domains shown)
VH: B1 VH with S31R, I34M, A61V, E62D, M107H
VL: B1 VL with R24K, H55A
notes: also called clone 50
B29: h6E6-017 (antibody, V domains shown)
VH: B1 VH with S31R, I34M, T50S
VL: B1 VL with R24K
notes: also called clone 17
B30: h6E6-054 (antibody, V domains shown)
VH: B1 VH with S31N, I34V, A61V, E62T, M107L
VL: B1 VL with R24K, L33V, H55A
notes: also called clone 54
B31: h6E6-047 (antibody, V domains shown)
VH: B1 VH with S31K, I34M, L45P, E62T, M107L
VL: B1 VL with L33V, H55A
notes: also called clone 47
B32: h6E6-024 (antibody, V domains shown)
VH: B1 VH with S31E, I34M, A61V
VL: B1 VL with L33V, H55A
notes: also called clone 24
B33: h6E6-010 (antibody, V domains shown)
VH: B1 VH with S31N, I34M, A61V, E62A
VL: B1 VL with R24K, H55A
notes: also called clone 10
B34: h6E6-006 (antibody, V domains shown)
VH: B1 VH with S31T, I34M, E62T, M107H
VL: B1 VL with H55A
notes: also called clone 6
B35: h6E6-097 (antibody, V domains shown)
VH: B1 VH with S31A, I34M, A61V
VL: B1 VL with R24K, L33V, H55A
notes: also called clone 97
B36: h6E6-016 (antibody, V domains shown)
VH: B1 VH with S31A, I34M, E62T, M107Q
VL: B1 VL with R24K, L33V
notes: also called clone 16
B37: h6E6-020 (antibody, V domains shown)
VH: B1 VH with S31K, I34V, E62P
VL: B1 VL with R24K, H55A
notes: also called clone 20
B38: h6E6-030 (antibody, V domains shown)
VH: B1 VH with I34M, E62A
VL: B1 VL with R24K, H55A
notes: also called clone 30
B39: h6E6-045 (antibody, V domains shown)
VH: B1 VH with S31G, I34M, A61V, E62Q
VL: B1 VL with R24K, L33V, H55A
notes: also called clone 45
B40: h6E6-071 (antibody, V domains shown)
VH: B1 VH with S31H, I34M, M107F
VL: B1 VL with R24K
notes: also called clone 71
B41: h6E6-032 (antibody, V domains shown)
VH: B1 VH with S31N, I34T
VL: B1 VL with R24K, H55A
notes: also called clone 32
B42: h6E6-015 (antibody, V domains shown)
VH: B1 VH with S31N, I34L, A61V, E62T, M107L
VL: B1 VL with R24K, L33V
notes: also called clone 15
B43: h6E6-031 (antibody, V domains shown)
VH: B1 VH with I34M, A75D, M107I
VL: B1 VL with L33V
notes: also called clone 31
B44: h6E6-090 (antibody, V domains shown)
VH: B1 VH with S31T, I34T, E62P, M107L
VL: B1 VL with R24K
notes: also called clone 90
B45: h6E6-046 (antibody, V domains shown)
VH: B1 VH with S31R, E62T
VL: B1 VL with R24K, L33V
notes: also called clone 46

Positions count from the first letter of the chain named.

Sequence of human ROR2 (Q01974 34-403 limits assumed): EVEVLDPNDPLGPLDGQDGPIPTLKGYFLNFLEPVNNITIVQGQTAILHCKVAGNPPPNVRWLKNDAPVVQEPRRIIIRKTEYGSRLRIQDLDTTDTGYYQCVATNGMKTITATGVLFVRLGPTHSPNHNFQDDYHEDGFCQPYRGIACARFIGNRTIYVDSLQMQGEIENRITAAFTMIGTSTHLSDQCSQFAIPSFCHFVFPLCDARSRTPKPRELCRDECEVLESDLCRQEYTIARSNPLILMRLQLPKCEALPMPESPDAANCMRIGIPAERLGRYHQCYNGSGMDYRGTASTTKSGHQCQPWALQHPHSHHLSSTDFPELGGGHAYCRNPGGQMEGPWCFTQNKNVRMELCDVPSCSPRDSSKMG

The test addresses human ROR2 (human, UniProt Q01974 34-403, limits assumed). The test can be described thus: SPR. In outline: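 Using surface plasmon resonance, the dissociation constant (Kd, nM) was determined for binding of humanized anti-human ROR2 monoclonal antibodies to human ROR2. These antibodies carry murine complementarity-determining regions in human acceptor frameworks and a human IgG1 constant region. No antigen format, concentrations, temperature, buffer or replicate count is stated.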
On the technique in general: SPR reads the build-up and loss of mass on a sensor chip optically.
As to B1, binding was characterised by a dissociation constant (Kd) of 0.284 nM. This counts as sub-nanomolar.
The same measure for B2: 0.476 nM; for B3: 0.062 nM; for B4: 0.335 nM.
The same measure for B5: 0.407 nM; for B6: 0.286 nM; for B7: 0.271 nM.
For B8, binding was characterised by a dissociation constant (Kd) of 0.203 nM.
Regarding B9, the Kd – broadly, the concentration at which binding is half-saturated – worked out at 1.4 nM.
The same measure for B10: 0.151 nM.
For B11 the value was 0.509 nM.
Molecule B12 registered a Kd of 1.4 nM.
The same measure for B13: 0.215 nM; for B14: 0.144 nM.
For B15 the value was 5.8 nM; for B16, 2.2 nM; for B17, 0.642 nM.
The same measure for B18: 0.812 nM; for B19: 0.108 nM; for B20: 0.476 nM.
As to B21, binding was put at a Kd of 0.533 nM.
B22 returned a Kd of 0.147 nM.
For B23 the value was 0.057 nM.
The same measure for B24: 0.839 nM; for B25: 0.321 nM; for B26: 0.16 nM.
For B27 the value was 0.2 nM.
As for B28, binding was characterised by a dissociation constant (Kd) of 0.482 nM.
The molecule B29 showed a Kd of 4 nM.
The same measure for B30: 0.178 nM; for B31: 0.086 nM.
For B32 the value was 0.605 nM.
The same measure for B33: 0.23 nM.
B34 registered a Kd of 0.166 nM. This Kd and that of the molecule before are within 1.5-fold of each other.
As for B35, the Kd was 0.096 nM.
For B36 the value was 0.037 nM; for B37, 0.629 nM; for B38, 0.221 nM.
Take B39: the Kd is 0.134 nM.
The same measure for B40: 0.582 nM; for B41: 0.479 nM.
The same measure for B42: 0.386 nM.
The same measure for B43: 0.103 nM; for B44: 0.178 nM.
B45 came in with a Kd of 0.527 nM.
